Experiment [1] has as its target 1433g_mouse Ywhag (UniProt P61982).
The target is the same in experiment [2]. The source holds these as a separate data set.

UniProt P61982, sequence (P61982 whole entry): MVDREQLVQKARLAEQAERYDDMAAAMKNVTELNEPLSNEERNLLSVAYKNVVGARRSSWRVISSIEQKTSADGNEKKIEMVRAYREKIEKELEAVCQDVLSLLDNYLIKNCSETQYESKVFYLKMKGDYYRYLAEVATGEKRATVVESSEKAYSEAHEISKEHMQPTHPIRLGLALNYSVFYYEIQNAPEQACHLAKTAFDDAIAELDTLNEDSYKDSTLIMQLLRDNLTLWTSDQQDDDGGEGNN

Turning to “Leucine-rich repeat serine/threonine-protein kinase 2 (Mus musculus), Q5S006 G2019S”, the “effect of a mutation on the interaction” value with 1433g_mouse Ywhag [1] is listed as “decreasing interaction”.
Still for that read-out and setting: the value for “Leucine-rich repeat serine/threonine-protein kinase 2 (Mus musculus), Q5S006 R1441G” was “decreasing interaction”; that for “Leucine-rich repeat serine/threonine-protein kinase 2 (Mus musculus), Q5S006 S935A” was “decreasing interaction”.
On to “Leucine-rich repeat serine/threonine-protein kinase 2 (Mus musculus), Q5S006 Y1699C”, for which the “effect of a mutation on the interaction” value with 1433g_mouse Ywhag [2] is listed as “decreasing interaction”.

The record behind these values is IntAct's records for PubMed 21390248.
